Tests used:
[1] = molecular target: T1, hu-M-IL1RAP construct, positions S21-T367 (extracellular domain of the membrane form of human IL1RAP) (human, UniProt Q9NPH3 21-367); assay: phage display selection of affinity maturation libraries + NGS; enrichment of the mutation Y30W (VL)
T1 construct: Biotinylated when captured on the Biacore chip
T1 sequence: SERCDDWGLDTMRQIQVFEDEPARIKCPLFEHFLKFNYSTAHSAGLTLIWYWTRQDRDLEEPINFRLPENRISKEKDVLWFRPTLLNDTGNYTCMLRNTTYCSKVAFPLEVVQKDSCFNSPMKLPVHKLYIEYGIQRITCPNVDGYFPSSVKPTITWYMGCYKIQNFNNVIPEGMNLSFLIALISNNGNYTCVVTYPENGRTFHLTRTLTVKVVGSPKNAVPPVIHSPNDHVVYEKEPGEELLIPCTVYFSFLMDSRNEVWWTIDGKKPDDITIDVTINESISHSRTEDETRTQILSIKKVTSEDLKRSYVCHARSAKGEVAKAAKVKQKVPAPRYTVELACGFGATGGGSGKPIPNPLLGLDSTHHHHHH

[2] = molecular target: T1, hu-M-IL1RAP construct, positions …; assay: SPR, Fab analyte, 25 C
[3] = molecular target: T1, hu-M-IL1RAP construct, positions …; assay: SPR, Fab against parent Fab
[4] = molecular target: T1, hu-M-IL1RAP construct, positions …; assay: phage display selection of affinity maturation libraries + NGS; enrichment of the mutation L33G (VL)
[5] = molecular target: T1, hu-M-IL1RAP construct, positions …; assay: SPR, Fab analyte, 37 C
[6] = molecular target: T2, human IL1RAP (hu-IL1RAP) on human cells (human, UniProt Q9NPH3 21-570); assay: cell-based or functional assay
T2 sequence: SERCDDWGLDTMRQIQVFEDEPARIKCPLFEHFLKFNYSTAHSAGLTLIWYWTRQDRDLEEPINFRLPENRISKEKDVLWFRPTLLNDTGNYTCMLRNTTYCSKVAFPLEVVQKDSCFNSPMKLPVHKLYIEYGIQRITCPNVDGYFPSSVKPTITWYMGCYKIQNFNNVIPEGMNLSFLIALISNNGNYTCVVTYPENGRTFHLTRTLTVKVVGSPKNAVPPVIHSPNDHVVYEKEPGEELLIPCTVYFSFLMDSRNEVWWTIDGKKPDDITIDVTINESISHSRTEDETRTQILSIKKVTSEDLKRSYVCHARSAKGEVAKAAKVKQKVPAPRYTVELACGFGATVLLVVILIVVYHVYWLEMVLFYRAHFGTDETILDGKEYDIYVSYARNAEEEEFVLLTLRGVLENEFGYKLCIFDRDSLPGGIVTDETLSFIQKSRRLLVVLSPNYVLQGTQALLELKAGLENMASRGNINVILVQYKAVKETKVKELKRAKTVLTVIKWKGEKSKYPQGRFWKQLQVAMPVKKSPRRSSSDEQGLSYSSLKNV

[7] = molecular target: T1, hu-M-IL1RAP construct, positions …; assay: SPR, Fab analyte
[8] = molecular target: T2, human IL1RAP (hu-IL1RAP) on human cells; assay: cell-based or functional assay; remark: listed apart in the source
[9] = molecular target: T1, hu-M-IL1RAP construct, positions …; assay: SPR, IgG analyte (apparent), pH 7.4, 37 C
[10] = molecular target: T3, cyno-M-IL1RAP construct, positions S21-T367 (cynomolgus monkey, UniProt P59822 21-367 (rhesus entry)); assay: SPR, IgG analyte (apparent), pH 7.4, 37 C
T3 construct: Biotinylated when captured on the Biacore chip; also called cy-M-IL1RAP
T3 sequence: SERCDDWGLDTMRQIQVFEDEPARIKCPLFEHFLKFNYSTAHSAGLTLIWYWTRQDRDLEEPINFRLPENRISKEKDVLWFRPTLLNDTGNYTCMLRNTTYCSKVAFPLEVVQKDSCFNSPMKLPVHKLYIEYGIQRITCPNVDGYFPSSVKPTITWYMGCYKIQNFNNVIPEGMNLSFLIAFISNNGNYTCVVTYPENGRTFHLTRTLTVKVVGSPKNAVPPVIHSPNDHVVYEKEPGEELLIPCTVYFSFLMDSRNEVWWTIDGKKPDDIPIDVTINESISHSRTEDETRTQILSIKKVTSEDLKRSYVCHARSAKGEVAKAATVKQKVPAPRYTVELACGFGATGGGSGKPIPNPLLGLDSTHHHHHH

[11] = molecular target: T1, hu-M-IL1RAP construct, positions …; assay: SPR, against YKD
[12] = molecular target: T3, cyno-M-IL1RAP construct, positions …; assay: SPR, against YKD
[13] = molecular target: T4, biotinylated cyno FcRn (Acro biosystems, catalogue number FCM-C5284) (cynomolgus monkey, UniProt Q8SPV9 24-297; Q8SPW0 21-119, limits assumed, biotinylated); assay: SPR steady state, FcRn captured, 25 C, pH 6.0; pH 6.0
T4 construct: Bought reagent

[14] = molecular target: T5, biotinylated human FcRn (Acro biosystems, catalogue number FCN-H52W7) (human, UniProt P55899 24-297; P61769 21-119, biotinylated); assay: as above
T5 construct: Bought reagent; also called hu-FcRn
T5 sequence (P55899 24-297 limits assumed, chain 1 of 2): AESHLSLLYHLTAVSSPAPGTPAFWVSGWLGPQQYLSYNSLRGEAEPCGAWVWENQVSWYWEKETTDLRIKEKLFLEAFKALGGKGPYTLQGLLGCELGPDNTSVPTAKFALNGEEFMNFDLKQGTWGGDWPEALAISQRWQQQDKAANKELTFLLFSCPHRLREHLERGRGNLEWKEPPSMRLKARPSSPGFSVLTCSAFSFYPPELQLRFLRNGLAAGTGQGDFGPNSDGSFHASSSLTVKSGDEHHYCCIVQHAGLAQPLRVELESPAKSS
T5 sequence (P61769 21-119 limits assumed, chain 2 of 2): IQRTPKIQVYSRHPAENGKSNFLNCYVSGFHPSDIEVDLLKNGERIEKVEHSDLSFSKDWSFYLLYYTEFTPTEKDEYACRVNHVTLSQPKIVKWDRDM

[15] = molecular target: T1, hu-M-IL1RAP construct, positions …; assay: SPR, against YIS
[16] = molecular target: T3, cyno-M-IL1RAP construct, positions …; assay: SPR, against YIS

B1: K1 Fab (VL Y30W) (Fab, V domains shown)
VH: EVQLVESGGGLVQPGGSLRLSCAASGFTFSNYAMSWVRQAPGKGLEWVATVTEGGDYNYYLDDVKGRFTISRDNAKNSLYLQMNSLRAEDTAVYYCARDRWPYFFDYWGQGTLVTVSS
VL: DIQMTQSPSSLSASVGDRVTITCRASENIWSNLAWYQQKPGKSPKLLVYGAKNLADGVPSRFSGSGSGTDYTLTISSLQPEDFATYYCQHFWTTPRTFGGGTKVEIK
notes: Fab with 8xHis tag
With B1 as the binder, how does the “Enrichment ratio (at the highest selection stringency)” value [1] read?
Its value is 3.52 ratio.

And the Kd [2]?
Its Kd is 0.0372 nM.

And the koff [2]?
Its koff is 0.00018 s⁻¹.

What about the kon [2] of the same binder?
Its kon is 4.82e+06 M⁻¹ s⁻¹.

And the “Fold Improvement in KD @ 25° C.” value [3]?
The value was 9.06 fold.

B2: K2 Fab (VL L33G) (Fab, V domains shown)
VH: EVQLVESGGGLVQPGGSLRLSCAASGFTFSNYAMSWVRQAPGKGLEWVATVTEGGDYNYYLDDVKGRFTISRDNAKNSLYLQMNSLRAEDTAVYYCARDRWPYFFDYWGQGTLVTVSS
VL: DIQMTQSPSSLSASVGDRVTITCRASENIYSNGAWYQQKPGKSPKLLVYGAKNLADGVPSRFSGSGSGTDYTLTISSLQPEDFATYYCQHFWTTPRTFGGGTKVEIK
notes: Fab with 8xHis tag
For B2, which Kd [2] is on record?
The Kd was 0.0346 nM.

What about the koff [2] of the same binder?
The koff was 0.000158 s⁻¹.

And the kon [2]?
The kon was 4.57e+06 M⁻¹ s⁻¹.

What about the “Fold Improvement in KD @ 25° C.” value [3] of the same binder?
The value was 9.74 fold.

What about the “Enrichment ratio (at the highest selection stringency)” value [4] of the same binder?
Its value is 1.71 ratio.

B3: K13 Fab (VL A51Y/W92I) (Fab, V domains shown)
VH: EVQLVESGGGLVQPGGSLRLSCAASGFTFSNYAMSWVRQAPGKGLEWVATVTEGGDYNYYLDDVKGRFTISRDNAKNSLYLQMNSLRAEDTAVYYCARDRWPYFFDYWGQGTLVTVSS
VL: DIQMTQSPSSLSASVGDRVTITCRASENIYSNLAWYQQKPGKSPKLLVYGYKNLADGVPSRFSGSGSGTDYTLTISSLQPEDFATYYCQHFITTPRTFGGGTKVEIK
notes: Fab with 8xHis tag
For B3, which Kd [5] is on record?
The Kd was 0.0293 nM.

And the koff [5]?
The koff was 0.000117 s⁻¹.

And the kon [5]?
The kon was 4.01e+06 M⁻¹ s⁻¹.

And the “HEK-Blue, IL-1β, % inhibition at 100 nM (Fab)” value [6]?
Its value is 100%.

What about the “HEK-Blue, IL-1β, IC50 (Fab)” value [6] of the same binder?
Its value is 0.94 nM.

And the “HEK-Blue, IL-33, % inhibition at 100 nM (Fab)” value [6]?
The value was 98%.

What about the “HEK-Blue, IL-33, IC50 (Fab)” value [6] of the same binder?
The value was 3.17 nM.

What about the “HEK-Blue, IL-36α, % inhibition at 100 nM (Fab)” value [6] of the same binder?
Its value is 100%.

What about the “HEK-Blue, IL-36α, IC50 (Fab)” value [6] of the same binder?
The value was 0.884 nM.

What about the Kd [2] of the same binder?
Its Kd is 0.00709 nM.

What about the koff [2] of the same binder?
The koff was 4.36e-05 s⁻¹.

What about the kon [2] of the same binder?
The kon was 6.15e+06 M⁻¹ s⁻¹.

And the “fold improvement of affinity over the parental Fab” value [7]?
Its value is 9 fold.

B4: h11C5 variant YKD/YTE (antibody, human IgG1, kappa, N297G)
heavy: EVQLVESGGGLVQPGGSLRLSCAASGFTFSNYAMSWVRQAPGKGLEWVATVTEGGDYNYYLDDVKGRFTISRDNAKNSLYLQMNSLRAEDTAVYYCARDDWPYFFDYWGQGTLVTVSSASTKGPSVFPLAPSSKSTSGGTAALGCLVKDYFPEPVTVSWNSGALTSGVHTFPAVLQSSGLYSLSSVVTVPSSSLGTQTYICNVNHKPSNTKVDKKVEPKSCDKTHTCPPCPAPELLGGPSVFLFPPKPKDTLYITREPEVTCVVVDVSHEDPEVKFNWYVDGVEVHNAKTKPREEQYGSTYRVVSVLTVLHQDWLNGKEYKCKVSNKALPAPIEKTISKAKGQPREPQVYTLPPSRDELTKNQVSLTCLVKGFYPSDIAVEWESNGQPENNYKTTPPVLDSDGSFFLYSKLTVDKSRWQQGNVFSCSVMHEALHNHYTQKSLSLSPGK
light: DIQMTQSPSSLSASVGDRVTITCRASENIYSNLAWYQQKPGKSPKLLVYGYKNLADGVPSRFSGSGSGTDYTLTISSLQPEDFATYYCQHFKTTPRTFGGGTKVEIKRTVAAPSVFIFPPSDEQLKSGTASVVCLLNNFYPREAKVQWKVDNALQSGNSQESVTEQDSKDSTYSLSSTLTLSKADYEKHKVYACEVTHQGLSSPVTKSFNRGEC
notes: YKD with M252Y/S254T/T256E (Eu index) in the Fc; N297G; also called 11C5-YKD/YTE; YKDNTE
With B4 as the binder, how does the “CD4+ T cells, IL-33+IL-12 stimulated IFN-γ, IC50” value [8] read?
Its value is 44 nM.

And the “HEK-Blue, IL-1β, IC50” value [8]?
The value was 0.51 nM.

And the “HEK-Blue, IL-33, % inhibition at 100 nM” value [8]?
The value was 97%.

What about the “HEK-Blue, IL-33, IC50” value [8] of the same binder?
The value was 3.3 nM.

What about the “HEK-Blue, IL-36β, IC50” value [8] of the same binder?
Its value is 0.9 nM.

And the “HEKn, IL-36β stimulated IL-8, IC50” value [8]?
The value was 1.16 nM.

What about the “NK cells, IL-33+IL-12 stimulated IFN-γ, IC50” value [8] of the same binder?
Its value is 1.32 nM.

And the “PHLF, IL-1α stimulated IL-8, IC50” value [8]?
The value was 6.47 nM.

What about the “PHLF, IL-36β stimulated IL-8, IC50” value [8] of the same binder?
Its value is 0.5 nM.

What about the “basophils, IL-33 stimulated p38 phosphorylation, IC50” value [8] of the same binder?
Its value is 41 nM.

What about the “monocytes, IL-1β stimulated IL-6, IC50” value [8] of the same binder?
Its value is 0.158 nM.

What about the Kd [9] of the same binder?
The Kd was 0.0254 nM.

And the koff [9]?
The koff was 5.12e-05 s⁻¹.

What about the kon [9] of the same binder?
The kon was 2.02e+06 M⁻¹ s⁻¹.

What about the Kd [10] of the same binder?
The Kd was 0.0219 nM.

And the koff [10]?
Its koff is 4.9e-05 s⁻¹.

And the kon [10]?
Its kon is 2.24e+06 M⁻¹ s⁻¹.

And the “KD YTE/KD Parental” value [11]?
Its value is 0.84 ratio.

And the “KD YTE/KD Parental” value [12]?
Its value is 0.98 ratio.

And the Kd [13]?
The Kd was 21.4 nM.

What about the Kd [14] of the same binder?
Its Kd is 130 nM.

B5: h11C5 variant YIS/YTE (antibody, human IgG1, kappa, N297G)
heavy: EVQLVESGGGLVQPGGSLRLSCAASGFTFSNYAMSWVRQAPGKGLEWVATSTEGGDYNYYLDDVKGRFTISRDNAKNSLYLQMNSLRAEDTAVYYCARDRWPYFFDYWGQGTLVTVSSASTKGPSVFPLAPSSKSTSGGTAALGCLVKDYFPEPVTVSWNSGALTSGVHTFPAVLQSSGLYSLSSVVTVPSSSLGTQTYICNVNHKPSNTKVDKKVEPKSCDKTHTCPPCPAPELLGGPSVFLFPPKPKDTLYITREPEVTCVVVDVSHEDPEVKFNWYVDGVEVHNAKTKPREEQYGSTYRVVSVLTVLHQDWLNGKEYKCKVSNKALPAPIEKTISKAKGQPREPQVYTLPPSRDELTKNQVSLTCLVKGFYPSDIAVEWESNGQPENNYKTTPPVLDSDGSFFLYSKLTVDKSRWQQGNVFSCSVMHEALHNHYTQKSLSLSPGK
light: DIQMTQSPSSLSASVGDRVTITCRASENIYSNLAWYQQKPGKSPKLLVYGYKNLADGVPSRFSGSGSGTDYTLTISSLQPEDFATYYCQHFITTPRTFGGGTKVEIKRTVAAPSVFIFPPSDEQLKSGTASVVCLLNNFYPREAKVQWKVDNALQSGNSQESVTEQDSKDSTYSLSSTLTLSKADYEKHKVYACEVTHQGLSSPVTKSFNRGEC
notes: YIS with M252Y/S254T/T256E (Eu index) in the Fc; N297G; also called 11C5-YIS/YTE
Which results are given for B5?
KD YTE/KD Parental [15]: 0.99 ratio; KD YTE/KD Parental [16]: 0.69 ratio; Kd [9]: 0.013 nM; koff [9]: 4.43e-05 s⁻¹; kon [9]: 3.42e+06 M⁻¹ s⁻¹; Kd [10]: 0.00798 nM; koff [10]: 3.07e-05 s⁻¹; kon [10]: 3.85e+06 M⁻¹ s⁻¹

Reference: US20260015426A1 (23ANDME, published 2026)
